Tests used:
Saccharomyces cerevisiae [1] = experiment: protein stability index of tFT-peptide fusion in deletion strain of DAS1 (PSI (0-1 scale)); higher = more stable (slower turnover)
Procedure: (§1)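 MPS profiling in S. cerevisiae of two library types built from selected 12-aa C-degron peptides (IN1, IN2, LN1, LN3, VN2, R1-R5, W1-W3, Atg1 and Rpa12 C-termini): saturation mutagenesis libraries and C-terminal +1 capping libraries (13 aa). Each peptide is fused to the C-terminus of a sfGFP-mCherry timer, after a GGGS linker. Cells are FACS-sorted into 8 mCherry/sfGFP bins and sequenced. PSI runs from 0 (unstable) to 1 (stable), measured once in wild type and in the das1Δ or doa10Δ background.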

Saccharomyces cerevisiae [2] = experiment: protein stability index of tFT-peptide fusion in wild type (PSI (0-1 scale)); higher = more stable (slower turnover); conditions: genetic background: wild type
Procedure: as §1
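Wherever protein stability index of tFT-peptide fusion in deletion strain of DAS1 is given: PSI is a weighted mean of each variant's read distribution over the sorted stability bins, computed only for variants having over 10 reads in total.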
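Wherever protein stability index of tFT-peptide fusion in wild type is given: PSI derived as read-weighted mean over the 8 sorting bins, only variants exceeding 10 total reads kept, mCherry placed adjacent to the peptide and sfGFP distal.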

Row | Sequence | protein stability index (Saccharomyces cerevisiae [1]) | protein stability index (Saccharomyces cerevisiae [2])
1 | FEMRWTFRYWVN | 0.437 | 0.0443
2 | FFMRWTFRYWVN | 0.371 | 0.0417
3 | FSERWTFRYWVN | 0.604 | 0.122
4 | FSMCWTFRYWVN | 0.412 | 0.0491
5 | FSMDWTFRYWVN | 0.543 | 0.0547
6 | FSMIWTFRYWVN | 0.301 | 0.0367
7 | FSMKWTFRYWVN | 0.565 | 0.0449
8 | FSMPWTFRYWVN | 0.598 | 0.11
9 | FSMRKTFRYWVN | 0.577 | 0.0767
10 | FSMRPTFRYWVN | 0.562 | 0.12
11 | FSMRWHFRYWVN | 0.756 | 0.0543
12 | FSMRWIFRYWVN | 0.535 | 0.163
13 | FSMRWMFRYWVN | 0.528 | 0.094
14 | FSMRWPFRYWVN | 0.569 | 0.0756
15 | FSMRWRFRYWVN | 0.584 | 0.0911
16 | FSMRWTFRMWVN | 0.31 | 0.0197
17 | FSMRWTFRPWVN | 0.6 | 0.245
18 | FSMRWTFRVWVN | 0.271 | 0.035
19 | FSMRWTFRYPVN | 0.555 | 0.548
20 | FSMRWTFRYWCN | 0.516 | 0.081
21 | FSMRWTFRYWVF | 0.439 | 0.0705
22 | FSMRWTFRYWVND | 0.557 | 0.539
23 | FSMRWTFRYWVNG | 0.537 | 0.431

Row | Sequence | protein stability index (Saccharomyces cerevisiae [1]) | protein stability index (Saccharomyces cerevisiae [2])
24 | FSMRWTFRYWVNM | 0.543 | 0.113
25 | FSMRWTYRYWVN | 0.504 | 0.0544
26 | FTMRWTFRYWVN | 0.428 | 0.0324
27 | GSLAASFWRVVG | 0.689 | 0.147
28 | GVVYLSCVACIN | 0.0346 | 0.0144
29 | HKHKKGQKQKIN | 0.604 | 0.114
30 | KFHKKGQKQKIN | 0.576 | 0.139
31 | KKGKKGQKQKIN | 0.592 | 0.11
32 | KKHGKGQKQKIN | 0.707 | 0.0862
33 | KKHKKGAKQKIN | 0.608 | 0.0819
34 | KKHKKGHKQKIN | 0.592 | 0.111
35 | KKHKKGQFQKIN | 0.618 | 0.112
36 | KKHKKGQKCKIN | 0.59 | 0.153
37 | KKHKKGQKQKFN | 0.635 | 0.307
38 | KKHKKGQKQKHN | 0.653 | 0.439
39 | KKHKKGQKQKIM | 0.609 | 0.179
40 | KKHKKGQKQKINE | 0.662 | 0.635
41 | KKHKKGQKQKIV | 0.596 | 0.136
42 | KKHKKGQKQKLN | 0.602 | 0.133
43 | KKHKKGQKQKTN | 0.619 | 0.472
44 | KKHKKGQKQNIN | 0.54 | 0.618
45 | KKHKKGQKQRIN | 0.642 | 0.127
46 | KKHKKGQKQVIN | 0.629 | 0.579

Row | Sequence | protein stability index (Saccharomyces cerevisiae [1]) | protein stability index (Saccharomyces cerevisiae [2])
47 | KKHKKGQKQYIN | 0.678 | 0.24
48 | KKHKKLQKQKIN | 0.602 | 0.054
49 | KKHKKNQKQKIN | 0.585 | 0.217
50 | KKHKKRQKQKIN | 0.587 | 0.0558
51 | KKHKKVQKQKIN | 0.619 | 0.165
52 | KKHKTGQKQKIN | 0.628 | 0.0826
53 | KKHWKGQKQKIN | 0.594 | 0.112
54 | KRGAVGGWRLVG | 0.648 | 0.165
55 | KSHKKGQKQKIN | 0.6 | 0.119
56 | KYHKKGQKQKIN | 0.595 | 0.0981
57 | LIILRQKMNHQN | 0.661 | 0.152
58 | LIVYLSCVACIN | 0.0335 | 0.0145
59 | LKGLRQKMNHQN | 0.669 | 0.196
60 | LKIKRQKMNHQN | 0.683 | 0.208
61 | LKILMQKMNHQN | 0.687 | 0.244
62 | LKILQQKMNHQN | 0.676 | 0.163
63 | LKILRDKMNHQN | 0.677 | 0.232
64 | LKILRKKMNHQN | 0.662 | 0.224
65 | LKILRQFMNHQN | 0.664 | 0.192
66 | LKILRQKKNHQN | 0.678 | 0.312
67 | LKILRQKLNHQN | 0.676 | 0.187
68 | LKILRQKMIHQN | 0.682 | 0.196
69 | LKILRQKMMHQN | 0.62 | 0.232

Row | Sequence | protein stability index (Saccharomyces cerevisiae [1]) | protein stability index (Saccharomyces cerevisiae [2])
70 | LKILRQKMNHFN | 0.675 | 0.21
71 | LKILRQKMNHGN | 0.672 | 0.47
72 | LKILRQKMNHHN | 0.688 | 0.247
73 | LKILRQKMNHQF | 0.678 | 0.255
74 | LKILRQKMNHQH | 0.68 | 0.231
75 | LKILRQKMNHQNC | 0.661 | 0.606
76 | LKILRQKMNHQNQ | 0.685 | 0.623
77 | LKILRQKMNHWN | 0.666 | 0.216
78 | LKILRQKMSHQN | 0.682 | 0.37
79 | LKILRQKMWHQN | 0.657 | 0.238
80 | LKILRQTMNHQN | 0.677 | 0.224
81 | LKILRVKMNHQN | 0.646 | 0.187
82 | LKILTQKMNHQN | 0.688 | 0.276
83 | LKILWQKMNHQN | 0.67 | 0.206
84 | LKIWRQKMNHQN | 0.687 | 0.176
85 | LKIYRQKMNHQN | 0.689 | 0.182
86 | LRGAVGGWRLVG | 0.681 | 0.149
87 | LSILRQKMNHQN | 0.675 | 0.127
88 | LSLAASFWRVVG | 0.664 | 0.129
89 | LVKYLSCVACIN | 0.365 | 0.09

— the supplement of paper PMC10724198
